These results are taken from article doi:10.1101/333070.

The test has as its target mouse proNGF (mouse) (UniProt P01139). Put plainly: SAXS.

As to “mouse proNGF (from UniProt P01139 19-241) (natural protein)”, the stoichiometry N (commonly a count of units in the complex or per binding partner) is 2.
